# Test system: MS2 coat protein
# Experiment: apparent KD of MS2 coat protein; designed switch direction (-1 OFF switch, 1 ON switch): -1; higher = weaker reporter binding
# Procedure, shortened: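 RNA switches sharing common flanks were transcribed by stalled E. coli RNA polymerase on Illumina chips. A doubling series of SNAP-549-labelled MS2 coat protein, from 0.7 or 1.5 nM to 3 µM, was applied in Tris-HCl pH 7.5 buffer with KCl, MgCl2, BSA, DTT, tRNA and Tween-20. Each step lasted 0.8–1.5 h at the bottom of the series and 10–20 min at the top. Normalised cluster fluorescence was curve-fitted, giving apparent KD as the per-design median over clusters.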
# [1] = Eterna round: R95, input ligand: microRNA oligo, concentration not stated
# [2] = Eterna round: R95, input ligand: FMN 200 uM
# [3] = Eterna round: R95, input ligand: none
Sequence,apparent KD of MS2 coat protein [1] [µM],apparent KD of MS2 coat protein (input ligand: FMN 200 uM) [µM],apparent KD of MS2 coat protein (input ligand: none) [µM],apparent KD of MS2 coat protein [2] [µM],apparent KD of MS2 coat protein [3] [µM],"apparent KD of MS2 coat protein (input ligand: microRNA oligo, concentration not stated) [µM]"
CAGUACUGAGGAUAUACAUGAGGAUCACCCAUGUCCUAAAAGUAGGAUACUACUAUUAGUAGAAGGCAGUACUG [Fiskers Ex 3 828 mod 23] (puzzle: Exclusion 3),0.0181,,,,,
"CAGUACUGAGGAUAUACAUGAGGAUCACCCAUGUCUUCCAGCUAGGAAACUAGCAAAUGUAGAAGGCAGUACUG [Salish 065 m9] (Eterna round: R97, puzzle: Exclusion 3)",,0.639,0.0718,,,
"CAGUACUGAGGAUAUACAUGAGGAUCACCCAUGUGAGAGAUACUAGUGAGGUCGAUUAGUAGAAGGCGGUACUG [Mat X3R4 m5] (Eterna round: R97, puzzle: Exclusion 3)",,0.306,0.0408,,,
"CAGUACUGAGGAUAUACAUGAGGAUCACCCAUGUGAUGUAGUGCACGCGUACGUGUACGUAGAAGGCAGUACUG [JL 3.27 m10] (Eterna round: R97, puzzle: Exclusion 3)",,0.0493,0.0171,,,
"CAGUACUGAGGAUAUACAUGAGGAUCACCCAUGUGAUUGAGUGCACGCGUACGUGUACGUAGAAGGCAGUACUG [JL 3.27 m11] (Eterna round: R97, puzzle: Exclusion 3)",,0.194,0.0181,,,
"CAGUACUGAGGAUAUACAUGAGGAUCACCCAUGUGCACCAGCUAGGAAACUAGCAAAAGUAGAAGGCAGUACUG [828 mod 2 m9] (Eterna round: R97, puzzle: Exclusion 3)",,0.112,0.0155,,,
CAGUACUGAGGAUAUACAUGAGGAUCACCCAUGUGUCCUAGCUAGGAAACUAGCAAAAGUAGAAGGCAGUACUG [Fiskers Ex 3 828 mod 5] (puzzle: Exclusion 3),0.0212,,,0.249,0.0229,
"CAGUACUGAGGAUAUACAUGAGGAUCACCCAUGUGUCCUCUAUUAGGAAACUAGUUAUGUAGAAGGCAGUACUG [Omei Ex3 Mod of Eli 4.27 v10] (Eterna round: R97, puzzle: Exclusion 3)",,1.05,1.05,,,
"CAGUACUGAGGAUAUACAUGAGGAUCACCCAUGUGUGUGAAAUUUAUGUGGUUGUUUUGUAGAAGGCAGUACUG [JR_Ex3_Sub029] (Eterna round: R97, puzzle: Exclusion 3)",,0.0921,0.855,,,
"CAGUACUGAGGAUAUACAUGAGGAUCACCCAUGUGUGUGAGAAAAGGAAGAAAAGAAUGUAGAAGGCGGUGCUG [JR_Ex3_Sub040] (Eterna round: R97, puzzle: Exclusion 3)",,0.24,0.486,,,
"CAGUACUGAGGAUAUACAUGAGGAUCACCCAUGUGUGUGAGAAUUGUGUGGUUGUUUUGUAGAAGGCGGUGCUG [JR_Ex3_Sub032] (Eterna round: R97, puzzle: Exclusion 3)",,0.326,0.346,,,
CAGUACUGAGGAUAUACAUGAGGAUCACCCAUGUGUUCCAGCUAGGAAACUAGCAAAAUUAGAAGGCAGUACUG [salish99_ex3_r3_087] (puzzle: Exclusion 3),0.0113,,,,,
"CAGUACUGAGGAUAUACAUGAGGAUCACCCAUGUGUUCCAGCUAGGAAACUAGCAAAUGUAGAAGGCAGUACUG [Ex3: 827] (Eterna round: R96, puzzle: Exclusion 3)",,,,,,0.216
"CAGUACUGAGGAUAUACAUGAGGAUCACCCAUGUGUUCCAGCUAGGAAACUAGCAAAUGUAGAAGGCAGUACUG [Salish 065 m8] (Eterna round: R97, puzzle: Exclusion 3)",,0.0451,0.323,,,
CAGUACUGAGGAUAUACAUGAGGAUCACCCAUGUGUUCCAGCUAGGAAACUAGCAAAUGUAGAAGGCAGUACUG [salish99_ex3_r3_089 (STABLE!)] (puzzle: Exclusion 3),0.217,,,0.0941,0.234,
"CAGUACUGAGGAUAUACAUGAGGAUCACCCAUGUGUUCCAGCUAGGAAACUAGCAAUGGAAGAAGGCAGUACUG [Salish 065 m1] (Eterna round: R97, puzzle: Exclusion 3)",,0.0188,0.0216,,,

Sequence,apparent KD of MS2 coat protein [1] [µM],apparent KD of MS2 coat protein (input ligand: FMN 200 uM) [µM],apparent KD of MS2 coat protein (input ligand: none) [µM],apparent KD of MS2 coat protein [2] [µM],apparent KD of MS2 coat protein [3] [µM],"apparent KD of MS2 coat protein (input ligand: microRNA oligo, concentration not stated) [µM]"
"CAGUACUGAGGAUAUACAUGAGGAUCACCCAUGUGUUCCAGCUAGGAAACUAGCGAAUGUAGAAGGCAGUACUG [jl-ex3-4.22 salish99 mod] (Eterna round: R97, puzzle: Exclusion 3)",,0.451,0.355,,,
CAGUACUGAGGAUAUACAUGAGGAUCACCCAUGUGUUCCAGCUAGGAAAGUAGCAAAAGUAGAAGGCAGUACUG [salish99_ex3_r3_072] (puzzle: Exclusion 3),0.0267,,,0.291,0.0216,
"CAGUACUGAGGAUAUACAUGAGGAUCACCCAUGUGUUCCAGCUAGGAUACUAGCAAUGGAAGAAGGCAGUACUG [Mat - Exclusion 3 - Eli Mod - D1] (Eterna round: R97, puzzle: Exclusion 3)",,0.0172,0.0168,,,
"CAGUACUGAGGAUAUACAUGAGGAUCACCCAUGUGUUCCUGCUAGGAUACUAGCAAGGGUAGAAGGCAGUACUG [Mat - Exclusion 3 - Eli Mod - D4] (Eterna round: R97, puzzle: Exclusion 3)",,0.0594,0.0197,,,
CAGUACUGAGGAUAUACAUGAGGAUCACCCAUGUGUUGCAGCUAGGAAACUAGCAAAAGUAGAAGGCAGUACUG [salish99_ex3_r3_081] (puzzle: Exclusion 3),0.012,,,,,
"CAGUACUGAGGAUAUACAUGAGGAUCACCCAUGUUAGAGAUACUAGUGAGGUCGAUUAGUAGAAGGCAGUACUG [Mat X3R4 m24] (Eterna round: R97, puzzle: Exclusion 3)",,0.557,0.0449,,,
"CAGUACUGAGGAUAUACAUGAGGAUCACCCAUGUUCUUCAGCUAGGAUACUAGCAAAGGUAGAAGGCAGUACUG [Mat - Exclusion 3 - Eli Mod - D28] (Eterna round: R97, puzzle: Exclusion 3)",,0.611,0.0301,,,
"CAGUACUGAGGAUAUACAUGAGGAUCACCCAUGUUCUUCGGCUAGGAUACUAGCAAAGGUAGAAGGCAGUACUG [Mat - Exclusion 3 - Eli Mod - D27] (Eterna round: R97, puzzle: Exclusion 3)",,0.144,0.0187,,,
CAGUAUUGAGGAUAUACAUGAGGAUCACCCAUGUGUUCCAGCUAGGAAACUAGCAAAAGUAGAAGGCAGUACUG [salish99_ex3_r3_085] (puzzle: Exclusion 3),0.021,,,,,
"CAGUGACAUGAGGAUCACCCAUGUCAGGAUAUCUGUACCAUCCGACGGAGGUCCAGACAGAGAAGGGACUUGGG [Eternabot (L1) Solution 31] (Eterna round: R97, puzzle: Exclusion 1)",,0.0769,0.0499,,,
CAUACAGUAGUUAGGAUAUUGCAACACACACGGAACGAGAAGGGACAUGAGGAUCACCCAUGUAGACUGUAAAG [EX-4 Malc #6] (puzzle: Brourd's mod of Exclusion 4),0.0272,,,0.0207,0.0245,
CAUACAGUAGUUAGGAUAUUGCAACGCACACGGAACGAGAAGGGACAUGAGGAUCACCCAUGUAGACUGUAAAG [EX-4 Malc #7] (puzzle: Brourd's mod of Exclusion 4),0.0185,,,0.0201,0.0247,
CAUACUAAAGUCAGGAUAUGCGGCCGAAUACGGGUGUAGAAGGGACAUGAGGAUCACCCAUGUAGAUAGUAAAG [EX-4 Malc #17] (puzzle: Brourd's mod of Exclusion 4),0.0231,,,0.0291,0.0222,
CAUACUCAAGUCAGGAUAUAGAGUCGGAUACGGGUCUAGAAGGGACAUGAGGAUCACCCAUGUAGAGAGUAAAG [EX-4 Malc #24] (puzzle: Brourd's mod of Exclusion 4),0.0309,,,0.0627,0.0308,
CAUACUCAAGUCAGGAUAUAGUCUCGGAUACGGAACUAGAAGGGACAUGAGGAUCACCCAUGUAGAGAGUAAAG [EX-4 Malc #27] (puzzle: Brourd's mod of Exclusion 4),0.0378,,,0.0632,0.0522,
CAUACUGAAGUUAGGAUAUUCGGCCGAAUACGGAUGGAGAAGGGACAUGAGGAUCACCCAUGUAGAUAGUAAAG [EX-4 Malc #14] (puzzle: Brourd's mod of Exclusion 4),0.0217,,,0.0261,0.0276,

# — the supplement of paper PMC9170038
